The data set can be described thus: self-splicing fitness, log relative to wild type (ln ratio); higher = more splicing; Tetrahymena group I intron in knt gene, E. coli kanamycin selection, DiMSum; sequences stand for … in CUCUCU…GGAGGGAAAAGUUAUCAGGCAUGCACCUGGUAGCUAGUCUUUAAACCAAUAGAUUGCAUCGGUUUAAAAGGCAAGACCGUCAAAUUGCGGGAAAGGGGUCAACAGCCGUUCAGUACCAAGUCUCAGGGGAAACUUUGAGAUGGCCUUGCAAAGGGUAUGGUAAUAAGCUGACGGACAUGGUCCUAACCACGCAGCCAAGUCCUAAGUCAACAGAUCUUCUGUUGAUAUGGAUGCAGUUCACAGACUAAAUGUCGGUCGGGGAAGAUGUAUUCUUCUCAUAAGAUAUAGUCGGACCUCUCCUUAAUGGGAGCUAGCGGAUGAAGUGAUGCAACACUGGAGCCGCUGGGAACUAAUUUGUAUGCGAAAGUAUAUUGAUUAGUUUUGGAGUACUCGUGGUCG
An outline of the steps:
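Library with all eight P1ex-region intron nucleotides randomised, intron inside the knt kanamycin-resistance gene on pET-22b(+), in E. coli BL21(DE3). Cells grew overnight at 37°C or 30°C on LB agar with or without 25 μg/mL kanamycin (plus 100 μg/mL carbenicillin, 50 μM IPTG, 0.2% rhamnose), in six replicate transformations. Pooled colonies were amplicon-sequenced on Illumina HiSeq 2500. DiMSum fitness is the error-weighted combination of wild-type-normalised replicate fold changes, kanamycin versus none.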

± gives the uncertainty stated by the source.

For CGAAAGCAAUAUUACGCCCU, the “self-splicing fitness (ln)” value reads like this: (30 °C) -0.989 ± 0.15; (37 °C) 0.0487 ± 0.19.
In the case of CGAAAGCAAUAUUACGCUGU, the “self-splicing fitness (ln)” value reads like this: (30 °C) -3.2 ± 0.25; (37 °C) -2.75 ± 0.33.
Take CGAAAGCAAUAUUACGCUUA: the “self-splicing fitness (ln)” value was -2.25 ± 0.16 (30 °C) and -1.24 ± 0.14 (37 °C).
As for CGAAAGCAAUAUUACGGACA, the “self-splicing fitness (ln)” value runs as follows: (30 °C) -0.806 ± 0.074; (37 °C) 0.186 ± 0.091.
For CGAAAGCAAUAUUACGGAGA, the “self-splicing fitness (ln)” value by setting is: (30 °C) -2.59 ± 0.29; (37 °C) -1.58 ± 0.37.
Consider CGAAAGCAAUAUUACGGCUC, for which the “self-splicing fitness (ln)” value (30 °C) was -2.88 ± 0.18 and the “self-splicing fitness (ln)” value (37 °C) was -1.73 ± 0.21.
As for CGAAAGCAAUAUUACGGGCC, the “self-splicing fitness (ln)” value (30 °C) was -3.07 ± 0.23 and the “self-splicing fitness (ln)” value (37 °C) is -3.07 ± 0.21.
Regarding CGAAAGCAAUAUUACGGUUC, the “self-splicing fitness (ln)” value is, setting by setting: (30 °C) -3.34 ± 0.16; (37 °C) -2.33 ± 0.17.
As to CGAAAGCAAUAUUACGGUUU, the “self-splicing fitness (ln)” value was -2.51 ± 0.095 (30 °C) and -1.51 ± 0.11 (37 °C).
For CGAAAGCAAUAUUACGUGAC, the “self-splicing fitness (ln)” value reads like this: (30 °C) -3.45 ± 0.12; (37 °C) -2.22 ± 0.13.
Taken in the same sequence, the figures for CGAAAGCAAUAUUACGUGGC were -0.949 ± 0.12 and -3.21 ± 0.32.
In the case of CGACAGCAAUAUUACGAAGC, the “self-splicing fitness (ln)” value reads like this: (30 °C) -2.91 ± 0.24; (37 °C) -3.43 ± 0.35.
Turning to CGACAGCAAUAUUACGACAG, the “self-splicing fitness (ln)” value is -0.3 ± 0.069 (30 °C) and 0.0609 ± 0.084 (37 °C).
On to CGACAGCAAUAUUACGAGAC, for which the “self-splicing fitness (ln)” value reads like this: (30 °C) -4.34 ± 0.3; (37 °C) -2.57 ± 0.26.
Consider CGACAGCAAUAUUACGAGAG, for which the “self-splicing fitness (ln)” value is, setting by setting: (30 °C) -3.42 ± 0.12; (37 °C) -1.95 ± 0.11.
Taken in the same sequence, the figures for CGACAGCAAUAUUACGAUCA were -0.455 ± 0.07 and 0.458 ± 0.096.
With CGACAGCAAUAUUACGCGGA, the “self-splicing fitness (ln)” value by setting is: (30 °C) -2.18 ± 0.12; (37 °C) -1.9 ± 0.089.
For the sequence CGACAGCAAUAUUACGCGGC, the “self-splicing fitness (ln)” value is -3.55 ± 0.16 (30 °C) and -2.96 ± 0.26 (37 °C).
On to CGACAGCAAUAUUACGCUGC, for which the “self-splicing fitness (ln)” value runs as follows: (30 °C) -3.02 ± 0.25; (37 °C) -2.24 ± 0.26.
In the case of CGACAGCAAUAUUACGGGUA, the “self-splicing fitness (ln)” value is -4.49 ± 0.28 (30 °C) and -1.49 ± 0.12 (37 °C).
Turning to CGACAGCAAUAUUACGGGUG, the “self-splicing fitness (ln)” value is -0.537 ± 0.043 (30 °C) and 0.0253 ± 0.063 (37 °C).
For the sequence CGACAGCAAUAUUACGGUAC, the “self-splicing fitness (ln)” value is -4.52 ± 0.36 (30 °C) and -2.09 ± 0.2 (37 °C).
In the case of CGACAGCAAUAUUACGUGUG, the “self-splicing fitness (ln)” value by setting is: (30 °C) -2.2 ± 0.067; (37 °C) -1.1 ± 0.07.
For CGAGAGCAAUAUUACGAAAU, the “self-splicing fitness (ln)” value (30 °C) was -2.81 ± 0.24 and the “self-splicing fitness (ln)” value (37 °C) was -2.97 ± 0.37.
As to CGAGAGCAAUAUUACGAGGC, the “self-splicing fitness (ln)” value is -1.83 ± 0.24 (30 °C) and -0.565 ± 0.48 (37 °C).
CGAGAGCAAUAUUACGAGUU: the “self-splicing fitness (ln)” value runs as follows: (30 °C) -3.56 ± 0.34; (37 °C) -2.18 ± 0.34.
Take CGAGAGCAAUAUUACGGAAU: the “self-splicing fitness (ln)” value by setting is: (30 °C) -3.06 ± 0.19; (37 °C) -3.23 ± 0.42.
CGAGAGCAAUAUUACGGCAC: the “self-splicing fitness (ln)” value was -3.72 ± 0.3 (30 °C) and -2.36 ± 0.23 (37 °C).
Consider CGAGAGCAAUAUUACGGGAC, for which the “self-splicing fitness (ln)” value is -3.92 ± 0.18 (30 °C) and -1.87 ± 0.16 (37 °C).
As to CGAGAGCAAUAUUACGGGCA, the “self-splicing fitness (ln)” value is -3.47 ± 0.28 (30 °C) and -2.53 ± 0.44 (37 °C).
CGAGAGCAAUAUUACGGGUA: the “self-splicing fitness (ln)” value was -2.27 ± 0.31 (30 °C) and -2.23 ± 0.27 (37 °C).
CGAGAGCAAUAUUACGGUAG: the “self-splicing fitness (ln)” value is, setting by setting: (30 °C) -1.73 ± 0.23; (37 °C) -1.65 ± 0.33.
Taken in the same sequence, the figures for CGAGAGCAAUAUUACGGUGA were -3.9 ± 0.22 and -2.44 ± 0.2.
For CGAGAGCAAUAUUACGUCUU, the “self-splicing fitness (ln)” value (30 °C) is -3.66 ± 0.43 and the “self-splicing fitness (ln)” value (37 °C) is -1.39 ± 0.22.
With CGAGAGCAAUAUUACGUGAG, the “self-splicing fitness (ln)” value (30 °C) is -1.51 ± 0.18 and the “self-splicing fitness (ln)” value (37 °C) is -1.75 ± 0.48.
Regarding CGAGAGCAAUAUUACGUGUC, the “self-splicing fitness (ln)” value (30 °C) was -3.05 ± 0.14 and the “self-splicing fitness (ln)” value (37 °C) was -2.17 ± 0.16.
Take CGAUAGCAAUAUUACGAGAU: the “self-splicing fitness (ln)” value runs as follows: (30 °C) -4.01 ± 0.39; (37 °C) -2.73 ± 0.25.
Turning to CGAUAGCAAUAUUACGAUAU, the “self-splicing fitness (ln)” value is, setting by setting: (30 °C) -3.53 ± 0.16; (37 °C) -1.47 ± 0.12.
Consider CGAUAGCAAUAUUACGCACG, for which the “self-splicing fitness (ln)” value reads like this: (30 °C) -2.6 ± 0.36; (37 °C) -1.91 ± 0.37.
As to CGAUAGCAAUAUUACGCAUG, the “self-splicing fitness (ln)” value was -1.79 ± 0.07 (30 °C) and -0.761 ± 0.069 (37 °C).
On to CGAUAGCAAUAUUACGCCCC, for which the “self-splicing fitness (ln)” value is -1.99 ± 0.29 (30 °C) and -0.838 ± 0.29 (37 °C).
Consider CGAUAGCAAUAUUACGCGAU, for which the “self-splicing fitness (ln)” value reads like this: (30 °C) -3.09 ± 0.18; (37 °C) -2.6 ± 0.29.
Taken in the same sequence, the figures for CGAUAGCAAUAUUACGCGCG were -2.92 ± 0.15 and -1.59 ± 0.14.
Turning to CGAUAGCAAUAUUACGCUAC, the “self-splicing fitness (ln)” value (30 °C) was -2.95 ± 0.29.
As to CGAUAGCAAUAUUACGCUCA, the “self-splicing fitness (ln)” value was -0.478 ± 0.11 (30 °C) and 0.119 ± 0.15 (37 °C).
Consider CGAUAGCAAUAUUACGGAAC, for which the “self-splicing fitness (ln)” value is -2.5 ± 0.2 (30 °C) and -2.68 ± 0.25 (37 °C).
Taken in the same sequence, the figures for CGAUAGCAAUAUUACGGCCG were -0.641 ± 0.087 and -0.184 ± 0.15.
Turning to CGAUAGCAAUAUUACGGUAU, the “self-splicing fitness (ln)” value was -2.78 ± 0.14 (30 °C) and -1.79 ± 0.17 (37 °C).
In the case of CGAUAGCAAUAUUACGUAUA, the “self-splicing fitness (ln)” value reads like this: (30 °C) -2.37 ± 0.15; (37 °C) -3.14 ± 0.23.
CGAUAGCAAUAUUACGUCAA: the “self-splicing fitness (ln)” value is, setting by setting: (30 °C) -3.18 ± 0.18; (37 °C) -2.08 ± 0.15.
Regarding CGAUAGCAAUAUUACGUCAU, the “self-splicing fitness (ln)” value reads like this: (30 °C) -2.2 ± 0.15; (37 °C) -2.02 ± 0.18.
Taken in the same sequence, the figures for CGAUAGCAAUAUUACGUCCU were -1.29 ± 0.16 and -0.541 ± 0.19.
For the sequence CGAUAGCAAUAUUACGUCUA, the “self-splicing fitness (ln)” value reads like this: (30 °C) -1.89 ± 0.13; (37 °C) -0.377 ± 0.11.
For the sequence CGAUAGCAAUAUUACGUUCG, the “self-splicing fitness (ln)” value is -3.06 ± 0.24 (30 °C) and -1.9 ± 0.33 (37 °C).
Taken in the same sequence, the figures for CGCAAGCAAUAUUACGAGAU were -3.04 ± 0.38 and -1.59 ± 0.26.
Taken in the same sequence, the figures for CGCAAGCAAUAUUACGAUGG were -0.351 ± 0.081 and -0.239 ± 0.095.
For CGCAAGCAAUAUUACGAUGU, the “self-splicing fitness (ln)” value is, setting by setting: (30 °C) -1.6 ± 0.075; (37 °C) -0.734 ± 0.1.
Regarding CGCAAGCAAUAUUACGCAAA, the “self-splicing fitness (ln)” value runs as follows: (30 °C) -1.92 ± 0.22; (37 °C) -2.99 ± 0.37.
CGCAAGCAAUAUUACGCACA: the “self-splicing fitness (ln)” value (30 °C) was -0.694 ± 0.096 and the “self-splicing fitness (ln)” value (37 °C) is -0.825 ± 0.1.
In the case of CGCAAGCAAUAUUACGCCUU, the “self-splicing fitness (ln)” value (30 °C) was -2.63 ± 0.17 and the “self-splicing fitness (ln)” value (37 °C) was -2.62 ± 0.26.

(Values after the supplement of paper PMC7877785.)
